B1: COV_3069 (antibody, V domains shown)
VH: EVQLVESGGGLVKPGGSLRLSCAASGFTFGSYTMNWVRQAPGKGLEWVSSIDTTSSSIYYADSLKGRFAISRDSAKNSLYLQMNRLRAEDTAVYYCARGNGHSYDSSGYHYGMYFDYWGQGTLVTVSS
VL: DIQMTQSPSTLSASVGDRVTITCRASQSISRWLAWYQQKPGKAPKLLIYEVSSLENGVPSRFSGSRSGTEFTLTISSLQPDDFAIYYCQQYNTYSRTFGQGTKVEIKR
notes: human IgG1
B2: COV_2125 (antibody, V domains shown)
VH: EVQLVESGGGVVQPGRSLRLSCAASGFTFSSYGMHWVRQAPGKGLEWVAVISYDGSNKYYADSVKGRFTISRDNSKNTLSLQMNSLRPEDTAVYYCAKDSPYYYDSSGYYPGYFQDWGQGSLVTVSS
VL: DIQMTQSPSSLSASIGDRVTITCRASQTISDYLNWYQQKPGKAPNLLIYAASTLQSGVPSRFSGSGSGTDFTLTISSLQPEDFATYYCQQSYITPRTFGQGTKVEIK
notes: human IgG1
B3: COV_3129 (antibody, V domains shown)
VH: QVQLQQWGAGLLKPSDTLSLTCAANGGGSFSGYYLGYIRQSPGKGLEWIGEINHNGGTNYNPSLKSRVTISGDTSKNQFSLKLSSVTAADTAIYYCARSRDSSLGDAVWYEYWGQGTLITVSS
VL: EIVLTQSPATLSLSPGERATLSCRASQSVDIYLAWYQQRPGQAPRLLISDASKRATGVPARFSGSGSGTDFTLTINSLEPEDFAIYYCQQRRDWPINFGQGTRLEIKR
notes: human IgG1

Tests used:
[1] = molecular target: T1, HCoV-NL63 spike antigens (bead panel) (HCoV-NL63, UniProt Q6Q1S2 19-1296); assay: multiplex bead assay
T1 sequence: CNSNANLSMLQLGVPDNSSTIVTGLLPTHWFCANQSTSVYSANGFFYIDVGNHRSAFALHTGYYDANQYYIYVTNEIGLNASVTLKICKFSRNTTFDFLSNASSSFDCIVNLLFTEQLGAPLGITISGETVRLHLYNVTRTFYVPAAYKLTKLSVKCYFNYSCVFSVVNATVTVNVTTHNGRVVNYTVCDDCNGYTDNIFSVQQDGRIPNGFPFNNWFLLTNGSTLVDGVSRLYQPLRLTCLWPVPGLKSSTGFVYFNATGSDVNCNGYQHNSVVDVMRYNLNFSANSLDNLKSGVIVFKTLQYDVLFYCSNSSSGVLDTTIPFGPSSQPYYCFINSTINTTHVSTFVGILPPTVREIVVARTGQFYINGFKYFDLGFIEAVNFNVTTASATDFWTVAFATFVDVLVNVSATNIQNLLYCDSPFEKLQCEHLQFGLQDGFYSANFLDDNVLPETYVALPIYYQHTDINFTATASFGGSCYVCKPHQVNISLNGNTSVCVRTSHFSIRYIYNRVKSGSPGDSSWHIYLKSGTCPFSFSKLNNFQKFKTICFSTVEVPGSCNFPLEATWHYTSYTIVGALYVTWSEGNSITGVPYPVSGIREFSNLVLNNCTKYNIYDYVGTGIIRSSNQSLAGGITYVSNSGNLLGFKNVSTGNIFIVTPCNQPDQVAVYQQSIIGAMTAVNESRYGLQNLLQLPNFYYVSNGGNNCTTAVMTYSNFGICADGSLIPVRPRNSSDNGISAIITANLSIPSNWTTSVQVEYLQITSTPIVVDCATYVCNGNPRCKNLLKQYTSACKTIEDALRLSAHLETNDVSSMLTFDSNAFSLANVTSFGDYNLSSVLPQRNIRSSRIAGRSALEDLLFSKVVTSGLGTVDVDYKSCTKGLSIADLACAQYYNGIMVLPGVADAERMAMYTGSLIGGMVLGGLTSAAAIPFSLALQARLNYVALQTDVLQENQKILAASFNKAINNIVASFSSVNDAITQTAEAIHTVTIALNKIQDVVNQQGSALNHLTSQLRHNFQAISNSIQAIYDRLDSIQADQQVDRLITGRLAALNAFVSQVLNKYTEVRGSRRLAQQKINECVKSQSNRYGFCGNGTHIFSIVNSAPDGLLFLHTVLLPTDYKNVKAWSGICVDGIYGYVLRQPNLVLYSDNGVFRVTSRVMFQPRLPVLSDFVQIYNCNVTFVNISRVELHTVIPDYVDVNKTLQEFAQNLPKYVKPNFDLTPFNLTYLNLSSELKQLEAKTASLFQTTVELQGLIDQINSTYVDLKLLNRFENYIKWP

[2] = molecular target: T2, HCoV-HKU1 spike antigens (bead panel) (HCoV-HKU1, UniProt Q5MQD0 13-1300); assay: multiplex bead assay
T2 sequence: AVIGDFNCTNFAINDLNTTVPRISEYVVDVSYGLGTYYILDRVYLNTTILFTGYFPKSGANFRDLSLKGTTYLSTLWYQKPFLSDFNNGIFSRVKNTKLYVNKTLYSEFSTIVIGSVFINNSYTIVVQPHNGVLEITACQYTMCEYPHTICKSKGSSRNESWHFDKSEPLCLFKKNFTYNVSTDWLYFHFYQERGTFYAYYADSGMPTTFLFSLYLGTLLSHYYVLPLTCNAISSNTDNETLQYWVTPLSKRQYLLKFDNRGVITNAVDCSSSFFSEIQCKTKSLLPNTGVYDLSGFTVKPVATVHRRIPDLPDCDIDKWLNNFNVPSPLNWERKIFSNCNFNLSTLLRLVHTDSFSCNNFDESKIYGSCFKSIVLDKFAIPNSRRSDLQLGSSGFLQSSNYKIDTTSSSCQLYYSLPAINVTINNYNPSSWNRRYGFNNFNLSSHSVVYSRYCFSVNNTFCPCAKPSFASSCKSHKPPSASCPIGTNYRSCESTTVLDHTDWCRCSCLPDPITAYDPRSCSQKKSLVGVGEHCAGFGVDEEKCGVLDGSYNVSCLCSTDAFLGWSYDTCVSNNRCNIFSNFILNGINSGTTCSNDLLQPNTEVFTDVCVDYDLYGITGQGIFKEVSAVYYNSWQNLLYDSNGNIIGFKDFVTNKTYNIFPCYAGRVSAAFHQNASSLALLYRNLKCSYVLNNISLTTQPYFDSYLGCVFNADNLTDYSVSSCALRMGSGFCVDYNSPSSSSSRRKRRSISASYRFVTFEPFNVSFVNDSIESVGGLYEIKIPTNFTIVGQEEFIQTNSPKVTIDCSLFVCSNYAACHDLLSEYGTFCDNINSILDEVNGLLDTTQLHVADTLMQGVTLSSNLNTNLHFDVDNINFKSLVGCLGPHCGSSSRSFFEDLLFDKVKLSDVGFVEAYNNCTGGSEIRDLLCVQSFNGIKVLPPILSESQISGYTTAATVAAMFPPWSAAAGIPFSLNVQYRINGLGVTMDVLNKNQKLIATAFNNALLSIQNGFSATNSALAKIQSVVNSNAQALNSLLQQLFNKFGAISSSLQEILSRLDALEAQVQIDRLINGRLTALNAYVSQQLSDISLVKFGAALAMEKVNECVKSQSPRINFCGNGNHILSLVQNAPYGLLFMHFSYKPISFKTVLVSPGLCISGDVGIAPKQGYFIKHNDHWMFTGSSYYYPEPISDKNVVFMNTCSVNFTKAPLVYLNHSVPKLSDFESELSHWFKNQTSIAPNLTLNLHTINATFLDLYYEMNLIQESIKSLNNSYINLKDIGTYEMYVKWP

Binder | binding result [1] | binding result [2]
B1 | no binding | no binding
B2 | no binding | no binding
B3 | no binding | no binding
